Results published in patent US20220380473A1, “ANTI-GAL3 ANTIBODIES AND USES THEREOF” (TrueBinding, Inc., priority 2019, published 2022).

Target: Galectin-3 (Homo sapiens, UniProt P17931)
Test: SPR (BiacoreT200) binding affinity
Conditions: 25° C., read-out: hGal-3 KD
Experimental: GAL3-binding antibodies were evaluated for their binding affinity by SPR. Kinetics experiments were performed on BiacoreT200 at 25° C. in high performance mode. Ligand proteins, purified antibodies were captured onto a CM5 chip coupled with anti-human Fc or anti-mouse Fc antibody, three antibodies at a time onto flow cell #2, 3, and 4, respectively, while flow cell #1 was used as reference. The analyte Galectin-3 in HBS-EP buffer was injected over all four flow cells at concentrations of 100, 50, 25, 12.5, 6.25, 3.125 and 0 nM at a flow rate of 30 μL/min. The complex was allowed to associate and dissociate for 240 and 300 seconds, respectively. The surfaces were regenerated with a 30 second injection of 10 mM Glycine pH 1.7 (flow rate 30 μL/min). The data were fit to a simple 1:1 interaction model using the global data analysis option available within BiacoreT200 Evaluation software V2.0. The affinity of Gal3 monoclonal antibodies was confirmed to be […] 30 nM for all antibodies studied (Table 24.1). Antibodies with affinity less than 2E-7 were selected for further characterization.

Galectin-3, sequence (P17931 whole entry): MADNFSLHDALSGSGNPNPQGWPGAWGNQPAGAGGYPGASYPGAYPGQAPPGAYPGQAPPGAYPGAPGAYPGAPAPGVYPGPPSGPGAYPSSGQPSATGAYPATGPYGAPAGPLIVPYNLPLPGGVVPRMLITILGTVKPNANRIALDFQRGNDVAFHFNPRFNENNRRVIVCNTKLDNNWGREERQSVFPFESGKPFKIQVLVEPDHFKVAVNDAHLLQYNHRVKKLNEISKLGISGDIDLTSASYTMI

B1: IMT001: anti-Gal3 monoclonal antibody (Immutics); printed as mIMT001 (IMT001), murine (antibody, V domains shown)
VH: QIQLVQSGPELKKPGETVKISCKASGYTFTNYGMNWVKQAPGKGLKWMGWINTNTGEPTYVEEFKGRFAFSLETSASTAYLQINNLKNEDTATYFCAPYDNFFAYWGQGTLVTVSA
VL: DIVITQDELSNPVTSGESVSISCRSSKSLLYKDGKTYLNWFLQRPGQSPQLLIYLMSTHASGVSDRFSGSGSGTDFTLEISRVKAEDVGVYYCQQLVDYPLTFGAGTKLELK
Kd: 1.67 nM
